# Measurements reported in PMC2719619, “Efficient, chemoselective synthesis of immunomicelles using single-domain antibodies with a C-terminal thioester” (BMC Biotechnology, 2009).
# B1: sdAb-aGST-MESNA (llama single-domain antibody against GST with a C-terminal MESNA thioester) (VHH)
# VHH: QVQLQDSGGGIVQPGGSLRLSCAGSGFSLDHYAIGWFRQAPGKRRELVASITSGGTIRYADSVKDRFTISRDNAKNRVYLQMNSLKPEDTAVYYCSARAKFSTSYDYWGQGTQVTVSS
# notes: llama single-domain antibody from a naive phage display library, clone C11 of vector pHENIX sdAb-α GST C11; A mix of species that differ in how much of the pelB leader is left (LC-MS: calcd. 19632, 19501, 18175, 18062 Da); One conserved disulfide bond; also called sdAb-α GST-MESNA; sdAb-GST; source: E. coli BL21 (DE3), pTXB1, periplasm; purified on a chitin column, cleaved from the intein with …
# Columns and labels:
# [1] = target: T1, Glutathione-S-transferase from Schistosoma japonicum (Schistosoma japonicum, UniProt P08515 = GST); experiment: ELISA; settings: both partners purified
# T1 construct: GST of Schistosoma japonicum (printed as 'glutathione-S from Schistosoma japonicum'); recombinant from the vector pGEX-4T-2 in the selection; GST from pGEX-4T-2 would carry some residues of the vector's linker at its C-terminus; also called GST
# [2] = target: T1, Glutathione-S-transferase from …; experiment: SPR; GST immobilised on a CM5 chip by EDC/NHS (160 RU), 0-500 nM sdAb injected, 25°C, PBS with 0.05% Tween-20, 30 μL/min; steady state responses fitted to a one-site binding model; apparent; settings: both partners purified
# T1 sequence (P08515 whole entry, looked up): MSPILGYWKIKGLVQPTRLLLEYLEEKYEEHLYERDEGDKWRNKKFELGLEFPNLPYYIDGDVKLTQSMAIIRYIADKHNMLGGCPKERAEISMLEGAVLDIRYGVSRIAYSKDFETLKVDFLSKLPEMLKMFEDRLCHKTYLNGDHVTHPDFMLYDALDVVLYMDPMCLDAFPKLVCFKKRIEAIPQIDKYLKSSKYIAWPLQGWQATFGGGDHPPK
binder,measurement,setting,value
B1,Kd,[1],77 nM
same,Kd,[2],116 nM
